According to paper PMC11245488:

Molecular target: extracellular domain of human AXL (corresponding to sAXL) fused to C-terminal Fc (UniProt P30530)
Assay: SEC-MALS; human sAXL-Fc in solution; protein-conjugate analysis (protein 140 kDa, glycans ~25 kDa, total 165 kDa); conditions in the Supplemental Material

stoichiometry N: 2
Substance: extracellular domain of human AXL (corresponding to sAXL) fused to C-terminal Fc (from UniProt P30530 26-451) (Fc fusion)
